According to patent publication US10006080B2, “High-selectivity contact activation inhibitor based on infestin-4” (OBSCHESTVO S OGRANICHENNOY OTVETSTVENNOSTYU …, priority 2013, dated 2018):

T1: factor XIIa (UniProt P00748 20-615, limits assumed)
T1 construct: also called fXIIa
T1 sequence (looked up): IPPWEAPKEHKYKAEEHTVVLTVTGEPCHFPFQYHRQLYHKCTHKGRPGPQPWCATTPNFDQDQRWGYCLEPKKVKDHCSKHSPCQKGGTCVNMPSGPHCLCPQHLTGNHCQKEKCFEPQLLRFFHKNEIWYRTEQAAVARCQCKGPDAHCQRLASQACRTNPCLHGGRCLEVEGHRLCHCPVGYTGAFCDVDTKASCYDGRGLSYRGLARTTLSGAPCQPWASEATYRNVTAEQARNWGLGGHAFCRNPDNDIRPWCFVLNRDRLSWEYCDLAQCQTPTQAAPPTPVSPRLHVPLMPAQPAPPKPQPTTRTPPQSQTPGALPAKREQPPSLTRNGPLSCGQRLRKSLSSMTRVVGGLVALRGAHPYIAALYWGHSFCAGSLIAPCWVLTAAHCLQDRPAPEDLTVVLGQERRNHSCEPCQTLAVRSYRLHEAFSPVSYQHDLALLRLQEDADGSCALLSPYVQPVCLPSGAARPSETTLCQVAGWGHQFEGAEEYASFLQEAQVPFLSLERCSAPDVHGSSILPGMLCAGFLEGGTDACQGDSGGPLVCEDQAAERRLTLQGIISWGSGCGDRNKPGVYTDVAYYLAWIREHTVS

B1: corn trypsin inhibitor (other, UniProt P01088 29-138, looked up)
chain: SAGTSCVPGWAIPHNPLPSCRWYVTSRTCGIGPRLPWPELKRRCCRELADIPAYCRCTALSILMDGAIPPGPDAQLEGRLEDLPGCPREVQRGFAATLVTEAECNLATIS
notes: Isolated from corn; also called CTI

What was measured:
fXIIa = molecular target: T2, fXIIa (Homo sapiens, UniProt P00748); test: Chromogenic test of protease inhibition in buffer, fXIIa (substrate S-2302); format: biochemical; settings: versus fXIa, fXa, aPC; Table 2
T2 construct: it can be transformed into an active protease, factor XIIa (fXIIa)
Experimental: (§1) In order to assess selectivity of the fXIIa inhibition by the polypeptide comprising the sequence of the infestin-4 mutant MutB, its inhibitory activity in buffer solution against the purified coagulation factors was determined. The polypeptide's activity was compared with the known fXIIa inhibitors: CTI, infestin-4, infestin-4-based mutant Mut15, LCTI-III. […] The standard deviation amounted to about 50% of the average value; each value was measured by performing 2-3 repeats.
(§2) To determine the inhibition activity of such proteins as MutB, CTI, Inf4, Mut15, and LCTI-III as related to different coagulation proteases in a buffer, the chromogenic test was used: the mixture of protease and inhibitor was incubated in the wells of the plate for 15 minutes at 37° C., after which the chromogenic substrate solution was added to the mixture, and the protease activity was measured as the rate of chromogenic product formation at 37° C.
(§3) Chromogenic substrates included a p-nitroanilide group cleaved by the corresponding proteases. After cleavage of the p-nitroanilide group from the substrate molecule, the group absorption spectrum changes, and the change of concentration of such product within time can be detected at the light wavelength of 405 nm using a plate spectrophotometer. […]

fXIa = molecular target: T3, fXIa (Homo sapiens, UniProt P03951); test: Chromogenic test of protease inhibition in buffer, fXIa (substrate S-2366); format: biochemical; settings: buffer solution, summary of Table 2
T3 construct: factor XI into its active form, factor XIa (fXIa)
Experimental: as §1, §2
(§4) Chromogenic substrates included a p-nitroanilide group cleaved by the corresponding proteases. After cleavage of the p-nitroanilide group from the substrate molecule, the group absorption spectrum changes, and the change of concentration of such product within time can be detected at the light wavelength of 405 nm using a plate spectrophotometer. To build a dependence curve of the protease activity from the inhibitor concentration, different inhibitor concentrations were added into several samples with the same protease concentration. After that, the inhibitor concentration able to decrease the protease activity by 50% (IC50) was determined. The inhibition constant Ki was calculated using the Cheng-Prusoff equation (Ki=IC50/(1+S/KM)), where S is the initial substrate concentration, KM is the Michaelis-Menten constant of the substrate to the protease.
Native infestin-4 and its mutants MutB and Mut15 used here were fusion proteins with thioredoxin I E. coli containing polyhisticline clusters. […]

fXa = fXa (Homo sapiens, UniProt P00742); test: Chromogenic test of protease inhibition in buffer, fXa (substrate S-2765); format: biochemical; settings: buffer solution, summary of Table 2
Sequence of fXa (P00742 235-488 limits assumed): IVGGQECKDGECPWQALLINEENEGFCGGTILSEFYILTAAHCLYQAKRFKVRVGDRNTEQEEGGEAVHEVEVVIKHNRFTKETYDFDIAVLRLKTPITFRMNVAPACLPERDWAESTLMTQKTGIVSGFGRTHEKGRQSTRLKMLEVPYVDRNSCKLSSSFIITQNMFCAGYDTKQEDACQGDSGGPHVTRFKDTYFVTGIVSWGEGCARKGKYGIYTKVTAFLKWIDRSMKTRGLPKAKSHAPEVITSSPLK
Sequence of fXa (P00742 41-179 partner limits assumed): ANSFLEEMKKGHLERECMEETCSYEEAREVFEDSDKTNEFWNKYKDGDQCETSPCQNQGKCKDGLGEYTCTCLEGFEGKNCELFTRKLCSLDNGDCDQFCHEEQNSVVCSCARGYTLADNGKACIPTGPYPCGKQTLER
Experimental: as §1, §2, §3

factor XIIa = molecular target: T1, factor XIIa; test: chromogenic test (S-2302), IC50 converted by Cheng-Prusoff
Experimental: as §2, §4

factor XIa = molecular target: T4, factor XIa (UniProt P03951 19-625); test: chromogenic test (S-2366), IC50 converted by Cheng-Prusoff
T4 construct: also called fXIa
Experimental: as §2, §4

aPC = aPC (Homo sapiens, UniProt P04070); test: Chromogenic test of protease inhibition in buffer, aPC (substrate Spectrozyme pCa); format: biochemical; settings: buffer solution, summary of Table 2
Sequence of aPC (P04070 212-450 limits assumed): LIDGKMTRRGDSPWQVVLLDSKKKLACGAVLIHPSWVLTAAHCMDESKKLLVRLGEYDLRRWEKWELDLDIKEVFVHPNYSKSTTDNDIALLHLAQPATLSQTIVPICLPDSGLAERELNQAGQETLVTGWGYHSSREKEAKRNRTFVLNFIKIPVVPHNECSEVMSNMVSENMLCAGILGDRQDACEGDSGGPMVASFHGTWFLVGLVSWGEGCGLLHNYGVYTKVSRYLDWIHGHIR
Sequence of aPC (P04070 43-197 partner limits assumed): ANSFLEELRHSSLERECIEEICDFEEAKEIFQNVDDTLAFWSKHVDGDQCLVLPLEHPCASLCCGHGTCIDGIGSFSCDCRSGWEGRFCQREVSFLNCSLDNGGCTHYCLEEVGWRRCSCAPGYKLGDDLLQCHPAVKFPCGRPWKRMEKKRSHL
Experimental: as §1, §2, §3

activated protein C = molecular target: T5, activated protein C (UniProt P04070 43-197; P04070 212-461); test: chromogenic test (Spectrozyme pCa), IC50 converted by Cheng-Prusoff
T5 construct: also called aPC
T5 sequence (P04070 43-197, form in doubt, chain 1 of 2): as the sequence (P04070 43-197 partner limits assumed) above
T5 sequence (P04070 212-461, form in doubt, chain 2 of 2): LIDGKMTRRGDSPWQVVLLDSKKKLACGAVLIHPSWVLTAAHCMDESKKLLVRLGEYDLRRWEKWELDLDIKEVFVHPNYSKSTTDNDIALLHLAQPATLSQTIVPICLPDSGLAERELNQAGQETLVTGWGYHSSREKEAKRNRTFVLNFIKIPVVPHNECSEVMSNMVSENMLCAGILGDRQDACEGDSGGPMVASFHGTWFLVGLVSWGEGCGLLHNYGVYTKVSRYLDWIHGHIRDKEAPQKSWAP
Experimental: as §2, §4

fibrinolysis = settings: supposedly by inhibiting the tissue activator of plasminogen; cited from earlier work

| Molecule | fXIIa inhibition selectivity among the said fXIIa inhibitors (fXIIa) | inhibition of fXIa (in words) (fXIa) | inhibition of fXa (in words) (fXa) | Ki (factor XIIa) | Ki (factor XIa) | inhibition of aPC (in words) (aPC) | Ki (activated protein C) | effect on fibrinolysis (fibrinolysis) |
| --- | --- | --- | --- | --- | --- | --- | --- | --- |
| MutB: polypeptide comprising the sequence of infestin-4 mutant MutB (SEQ ID NO: 1), inhibition loop TRNFVA; high-selectivity fXIIa inhibitor (EVRNPCACTRNFVAVCGSDGKTYGNPCMLNCAAQTKVPGLKLVHEGRCQRSNVEQF; Infestin-4 mutant MutB) | highest | do not inhibit | do not inhibit | – | – | – | – | – |
| B1 | – | inhibits | – | 0.001 µM | 15 µM | inhibits | 20 µM | can delay fibrinolysis |
